The source of these data is PMC9820991, “Elucidating the Interaction between Pyridoxine 5′-Phosphate Oxidase and Dopa Decarboxylase: Activation of B6-Dependent Enzyme” (International Journal of Molecular Sciences, 2022).

Experiment [1] deals with AAT (UniProt P17174). The experiment in a line: FP/SPR. The settings on record: cited from earlier work.
In another experiment the target is GAD (UniProt Q99259). Description: FP/SPR. The note with it: cited from earlier work.
Experiment [2] addresses AAT (UniProt P17174). The experiment in a line: fluorescence spectroscopy. The settings on record: cited from earlier work.
For experiment [3], the target named is T1, human dopa decarboxylase, holo form (human, UniProt P20711 1-480, PLP as internal aldimine on Lys303).
T1 construct: also called holoDDC; DDC; source: E. coli BL21(DE3)pLysS, purified (Histrap Ni2+ column, dialysis against PLP); not shown: His tag (from the Histrap column)
T1 sequence (looked up): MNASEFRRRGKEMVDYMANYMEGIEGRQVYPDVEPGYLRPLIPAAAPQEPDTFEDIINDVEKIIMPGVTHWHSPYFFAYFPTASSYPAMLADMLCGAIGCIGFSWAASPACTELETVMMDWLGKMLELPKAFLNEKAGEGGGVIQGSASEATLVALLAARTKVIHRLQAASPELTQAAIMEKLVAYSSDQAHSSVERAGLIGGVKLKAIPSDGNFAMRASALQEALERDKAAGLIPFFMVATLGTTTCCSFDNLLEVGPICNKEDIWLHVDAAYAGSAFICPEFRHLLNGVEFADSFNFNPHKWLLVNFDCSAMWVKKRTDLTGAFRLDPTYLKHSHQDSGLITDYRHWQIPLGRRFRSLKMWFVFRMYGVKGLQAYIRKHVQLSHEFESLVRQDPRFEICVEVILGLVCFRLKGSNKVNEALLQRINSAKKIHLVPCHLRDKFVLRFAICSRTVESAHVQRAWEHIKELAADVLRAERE
Description: ITC; PNPO titrated into holoDDC or apoDDC in the cell; MICROCAL PEAQ-ITC, 25 °C, 19 injections of 2 µL; 50 mM potassium phosphate pH 7.4, 150 mM NaCl; at least triplicate. The settings on record: both partners purified.

Experiment [4] concerns the target T2, human dopa decarboxylase, apo form (human, UniProt P20711 1-480).
T2 construct: same chain as m2 without PLP; Made from holoDDC by removal of the cofactor; also called apoDDC; source: E. coli BL21(DE3)pLysS, purified (Histrap Ni2+ column); PLP removed with 5 mM hydroxylamine and dialysis; not shown: His tag (from the Histrap column)
T2 sequence (looked up): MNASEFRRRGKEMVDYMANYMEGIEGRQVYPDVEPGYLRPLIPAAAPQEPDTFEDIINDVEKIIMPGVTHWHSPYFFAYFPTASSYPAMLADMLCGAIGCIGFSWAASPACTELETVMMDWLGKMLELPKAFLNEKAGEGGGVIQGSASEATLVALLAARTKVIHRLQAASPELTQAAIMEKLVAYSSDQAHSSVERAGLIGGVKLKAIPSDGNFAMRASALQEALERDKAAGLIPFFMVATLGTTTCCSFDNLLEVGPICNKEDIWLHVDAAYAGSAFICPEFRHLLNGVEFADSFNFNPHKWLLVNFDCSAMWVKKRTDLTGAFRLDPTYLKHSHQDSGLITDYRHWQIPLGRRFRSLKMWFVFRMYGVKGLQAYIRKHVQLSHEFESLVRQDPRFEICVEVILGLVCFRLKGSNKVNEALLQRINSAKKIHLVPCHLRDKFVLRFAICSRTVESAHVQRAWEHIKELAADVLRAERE
The description is as above. The note with it: both partners purified.

The target of experiment [5] is T1, human dopa decarboxylase, holo form. Description: SPR; Biacore T200, 25 °C; apoDDC, holoDDC and holoSHMT immobilised on a CM5 chip by amine coupling; analytes PNPO and albumin 100 to 1.5625 µM in PBS-P (10 mM phosphate pH 7.4, 140 mM NaCl, 3 mM KCl, 0.05% P20), 50 µL/min. The note with it: both partners purified.
Experiment [6] addresses T3, serine hydroxymethyltransferase (rabbit cytoplasmic), holo form (rabbit, UniProt P07511 1-484, PLP cofactor (holo form), residue not stated).
T3 construct: rabbit cytoplasmic serine hydroxymethyltransferase, recombinant, holo form; Positive control of the SPR experiment; also called holoSHMT; SHMT
T3 sequence (looked up): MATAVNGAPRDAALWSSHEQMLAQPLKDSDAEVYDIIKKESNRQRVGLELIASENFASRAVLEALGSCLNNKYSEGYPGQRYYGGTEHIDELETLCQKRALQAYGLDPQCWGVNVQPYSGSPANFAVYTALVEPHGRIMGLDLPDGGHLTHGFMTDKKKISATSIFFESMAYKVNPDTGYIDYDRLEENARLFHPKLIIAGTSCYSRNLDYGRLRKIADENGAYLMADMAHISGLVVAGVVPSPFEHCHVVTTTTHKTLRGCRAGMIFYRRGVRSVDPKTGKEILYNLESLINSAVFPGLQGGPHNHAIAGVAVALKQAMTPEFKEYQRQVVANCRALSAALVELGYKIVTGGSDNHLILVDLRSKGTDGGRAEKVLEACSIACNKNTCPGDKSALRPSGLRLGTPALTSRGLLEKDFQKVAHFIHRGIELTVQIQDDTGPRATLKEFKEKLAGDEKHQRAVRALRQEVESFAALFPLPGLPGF
Described as above. The note with it: both partners purified.

Sequence of AAT (P17174 2-413): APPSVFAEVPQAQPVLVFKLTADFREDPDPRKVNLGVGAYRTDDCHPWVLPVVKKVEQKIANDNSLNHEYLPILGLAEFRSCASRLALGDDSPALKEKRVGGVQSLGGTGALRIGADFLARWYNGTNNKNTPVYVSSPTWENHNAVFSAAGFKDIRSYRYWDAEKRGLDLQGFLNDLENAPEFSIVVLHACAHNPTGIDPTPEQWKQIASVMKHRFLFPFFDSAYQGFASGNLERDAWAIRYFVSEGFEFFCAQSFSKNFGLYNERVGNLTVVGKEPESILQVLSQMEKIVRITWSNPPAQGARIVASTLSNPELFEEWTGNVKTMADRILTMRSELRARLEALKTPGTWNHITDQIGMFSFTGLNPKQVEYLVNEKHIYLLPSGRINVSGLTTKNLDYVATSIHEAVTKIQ
Sequence of GAD (Q99259 whole entry): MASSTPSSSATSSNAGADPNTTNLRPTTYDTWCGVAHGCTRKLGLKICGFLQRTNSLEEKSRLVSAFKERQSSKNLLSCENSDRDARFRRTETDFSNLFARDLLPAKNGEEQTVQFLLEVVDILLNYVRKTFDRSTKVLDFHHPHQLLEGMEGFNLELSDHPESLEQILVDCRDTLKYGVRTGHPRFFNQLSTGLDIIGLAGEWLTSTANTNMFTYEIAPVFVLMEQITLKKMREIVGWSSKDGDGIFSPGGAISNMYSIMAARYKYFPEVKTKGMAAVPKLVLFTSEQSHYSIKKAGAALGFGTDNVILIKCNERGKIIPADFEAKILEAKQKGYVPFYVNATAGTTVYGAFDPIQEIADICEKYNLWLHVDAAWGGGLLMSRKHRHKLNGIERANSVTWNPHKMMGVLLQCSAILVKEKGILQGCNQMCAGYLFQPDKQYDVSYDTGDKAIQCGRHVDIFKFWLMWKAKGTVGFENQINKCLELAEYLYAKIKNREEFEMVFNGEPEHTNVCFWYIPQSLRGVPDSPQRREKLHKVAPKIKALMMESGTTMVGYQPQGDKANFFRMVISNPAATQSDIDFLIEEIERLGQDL

For PLK (from UniProt O00764), the Kd with AAT [1] was 4.9 µM; in the experiment with GAD, 2.7 µM; with AAT [2] it was 3 µM.

B1: human pyridoxine 5′-phosphate oxidase (enzyme, UniProt Q9NVS9 1-261, looked up)
chain: MTCWLRGVTATFGRPAEWPGYLSHLCGRSAAMDLGPMRKSYRGDREAFEETHLTSLDPVKQFAAWFEEAVQCPDIGEANAMCLATCTRDGKPSARMLLLKGFGKDGFRFFTNFESRKGKELDSNPFASLVFYWEPLNRQVRVEGPVKKLPEEEAECYFHSRPKSSQIGAVVSHQSSVIPDREYLRKKNEELEQLYQDQEVPKPKSWGGYVLYPQVMEFWQGQTNRLHDRIVFRRGLPTGDSPLGPMTHRGEEDWLYERLAP
notes: human pyridoxine 5′-phosphate oxidase (PNPO), recombinant; FMN-dependent enzyme; FMN was present during lysis and the first dialysis; also called PNPO; hPNPO; source: E. coli, purified (Histrap Ni2+ column, dialysis)
For the molecule B1, the Kd is 2.59 ± 0.11 µM in experiment [3], 0.92 ± 0.07 µM in experiment [4], 3.7 µM in experiment [5] and 15.4 µM in experiment [6]. The dH was -2.33 ± 0.1 kcal/mol in experiment [3] and -3.03 ± 0.1 kcal/mol in experiment [4]. Also, the results for the “stoichiometry N” value in experiment [3] and in experiment [4] were 0.94 ± 0.04 and 0.52 ± 0.01, respectively.
